Data set [1] has as its target BaiE (bile acid 7α-dehydratase) from Clostridium hylemonae DSM15053 (Clostridium hylemonae DSM15053). The data set is described as follows: SEC.
The target in data set [2] is BaiE (bile acid 7α-dehydratase) from Clostridium hiranonis DSM13275 (Clostridium hiranonis DSM13275). The data set is described as follows: SEC.
The target in data set [3] is BaiE (bile acid 7α-dehydratase) from Clostridium scindens ATCC35704 (Clostridium scindens ATCC35704) (UniProt P19412). In words: SEC.
Substrate in data set [4]: C[C@H](CCC(=O)O)[C@H]1CC[C@H]2[C@@H]3[C@H](O)CC4=CC(=O)CC[C@]4(C)[C@H]3CC[C@]12C
In words: purified protein. Format: biochemical, Peptacetobacter hiranonis. To be noted: 20 mM Tris-HCl pH 7.3, 25 °C.

Substrate in data set [5]: C[C@H](CCC(=O)SCCNC(=O)CCNC(=O)[C@H](O)C(C)(C)COP(=O)(O)OP(=O)(O)OC[C@H]1O[C@@H](n2cnc3c(N)ncnc32)[C@H](O)[C@@H]1OP(=O)(O)O)[C@H]1CC[C@H]2[C@@H]3[C@H](O)CC4=CC(=O)CC[C@]4(C)[C@H]3CC[C@]12C
In words: purified protein. Format: biochemical, Peptacetobacter hiranonis. To be noted: 20 mM Tris-HCl pH 7.3, 25 °C.

Substrate in data set [6]: C[C@H](CCC(=O)O)[C@H]1CC[C@H]2[C@@H]3[C@H](O)CC4=CC(=O)CC[C@]4(C)[C@H]3CC[C@]12C
The data set is described as follows: purified protein. Format: biochemical, [Clostridium] hylemonae. The following applies: 20 mM Tris-HCl pH 7.3, 25 °C.

Substrate in data set [7]: C[C@H](CCC(=O)SCCNC(=O)CCNC(=O)[C@H](O)C(C)(C)COP(=O)(O)OP(=O)(O)OC[C@H]1O[C@@H](n2cnc3c(N)ncnc32)[C@H](O)[C@@H]1OP(=O)(O)O)[C@H]1CC[C@H]2[C@@H]3[C@H](O)CC4=CC(=O)CC[C@]4(C)[C@H]3CC[C@]12C
In words: purified protein. Format: biochemical, [Clostridium] hylemonae. To be noted: 20 mM Tris-HCl pH 7.3, 25 °C.

Substrate in data set [8]: C[C@H](CCC(=O)O)[C@H]1CC[C@H]2[C@@H]3[C@H](O)CC4=CC(=O)CC[C@]4(C)[C@H]3CC[C@]12C
The data set is described as follows: purified protein. The following applies: 20 mM Tris-HCl pH 7.3, 25 °C. Format: biochemical, [Clostridium] scindens.

Substrate in data set [9]: C[C@H](CCC(=O)SCCNC(=O)CCNC(=O)[C@H](O)C(C)(C)COP(=O)(O)OP(=O)(O)OC[C@H]1O[C@@H](n2cnc3c(N)ncnc32)[C@H](O)[C@@H]1OP(=O)(O)O)[C@H]1CC[C@H]2[C@@H]3[C@H](O)CC4=CC(=O)CC[C@]4(C)[C@H]3CC[C@]12C
In words: purified protein. The data set is classed as biochemical, [Clostridium] scindens. The following applies: 20 mM Tris-HCl pH 7.3, 25 °C.

Data set [10] concerns the molecule itself. In words: SEC.

Substitutions are numbered along the chain they refer to.

From article PMC4755848 (Proteins, 2016) come the findings set out here.

Take “BaiE (bile acid 7α-dehydratase) from Clostridium hylemonae DSM15053 (enzyme)”: the stoichiometry N in data set [1] worked out at 3.
“BaiE (bile acid 7α-dehydratase) from Clostridium hiranonis DSM13275 (enzyme)” gave a stoichiometry N in data set [2] of 3.
As for “BaiE (bile acid 7α-dehydratase) from Clostridium scindens ATCC35704 (from UniProt P19412 1-166) (enzyme)”, in data set [3], the stoichiometry N was determined as 3.

B1: BaiE_13275 (Peptacetobacter hiranonis DSM 13275) (protein)
chain: MTLEARIEALEKEIQRLNDIEAIKQLKAKYFRCLDGKLWDELETTLSPNIETSYSDGKLVFHSPKEVTEYLAAAMPKEEISMHMGHTPEITIDSENTATGRWYLEDNLIFTDGKYKNVGINGGAFYTDKYEKIDGQWYIKETGYVRIFEEHFMRDPKIHITSNMHKEK
Regarding B1, in [4], the Km is recorded as 25.0 (1.8) μM, the kcat stood at 4.4 s⁻¹ and the kcat/Km was 200000 M⁻¹ s⁻¹. Also, in data set [5], the Km is 208.0 (40.0) μM, the kcat was 22.2 s⁻¹ and the kcat/Km stood at 100000 M⁻¹ s⁻¹.

B2: BaiE_15053 ([Clostridium] hylemonae DSM 15053) (protein)
chain: MSIEERLEALEKEIQKMKDIEEIKKLKGQYFRCLDGKFWDELETTLSPNIVTSYSNGKLVFHGPKEVTDYFKKAMPREEISMHMGHTPEITIDSETTATGRWYLEDKLIFTEESKYAGSGVNGGAFYTDKYEKVDGKWYILETGYLRVYEEHFMRDPKIKITMNMHKTK
For B2, in data set [6], the Km is recorded as 21.0 (2.0) μM, the kcat was 18.6 s⁻¹ and the kcat/Km is 900000 M⁻¹ s⁻¹. Further, in data set [7], the Km was 11.4 (1.9) μM, the kcat is 12.6 s⁻¹ and the kcat/Km turned out to be 1.1e+06 M⁻¹ s⁻¹.

B3: BaiE_35704 ([Clostridium] scindens ATCC 35704) (protein)
chain: MTLEERVEALEKELQKMKDIEAIKELKGKYFRCLDGKMWDELETTLSPNIVTSYSNGKLVFHSPKEVTDYLKSTMPKEEISMHMGHTPEITIDSETTATGRWYLEDKLIFTDGKYKDVGINGGAFYTDKYEKIEGQWYILETGYVRIYEEHFMRDPKIHITMNMHK
B3: in [8], the Km is listed as 11.0 (1.9) μM, the kcat is 18 s⁻¹ and the specificity constant (kcat/Km) was 1.6e+06 M⁻¹ s⁻¹. In [9], the Km was 1.2 (0.2) μM, the kcat stood at 15 s⁻¹ and the catalytic efficiency (kcat/Km) amounted to 1.25e+07 M⁻¹ s⁻¹.

B4: BaiE (bile acid 7α-dehydratase) from Clostridium scindens VPI12708 (enzyme, UniProt P19412 1-166, looked up)
chain: B3 chain with K16E, T74S, K107R, E134D
As to B4, the “stoichiometry N” value in data set [10] is 3. Further, in data set [8], the Km was 9.9 (2.1) μM, the kcat turned out to be 24 s⁻¹ and the kcat/Km is 2.4e+06 M⁻¹ s⁻¹. In data set [9], the Km was 4.0 (0.56) μM, the kcat was determined as 98 s⁻¹ and the kcat/Km turned out to be 2.45e+07 M⁻¹ s⁻¹.
